Reference: publication PMC4528106
Where two headings read alike, the source gives them in different places.

Assays:
[1] = molecular target: HKU4-CoV 3CLpro (bat coronavirus HKU4)
[2] = molecular target: MERS-CoV 3CLpro (nsp5 protease), without any N- or C-terminal extensions (MERS-CoV)
[3] = molecular target: MERS-CoV 3CLpro (nsp5 protease), without any N- or C-terminal extensions (MERS-CoV); assay: AUC
[4] = molecular target: SARS-CoV 3CLpro with authentic N and C termini (SARS-CoV)

With HKU4-CoV 3CLpro (enzyme) the Kd [1] was 100 nM.

“MERS-CoV 3CLpro (nsp5 protease), without any N- or C-terminal extensions (enzyme)” showed a Kd [2] of 7.8 µM, a Kd [3] of 52 µM and a koff [3] of 0.0001 s⁻¹. The stoichiometry N [3] was 2.

“SARS-CoV 3CLpro with authentic N and C termini (enzyme)” was tested, and the Kd [4] was 60 nM.
